Measurements from patent US20150141489.

Biological target: endogenous p38α, Q16539
Sequence (Q16539 2-360): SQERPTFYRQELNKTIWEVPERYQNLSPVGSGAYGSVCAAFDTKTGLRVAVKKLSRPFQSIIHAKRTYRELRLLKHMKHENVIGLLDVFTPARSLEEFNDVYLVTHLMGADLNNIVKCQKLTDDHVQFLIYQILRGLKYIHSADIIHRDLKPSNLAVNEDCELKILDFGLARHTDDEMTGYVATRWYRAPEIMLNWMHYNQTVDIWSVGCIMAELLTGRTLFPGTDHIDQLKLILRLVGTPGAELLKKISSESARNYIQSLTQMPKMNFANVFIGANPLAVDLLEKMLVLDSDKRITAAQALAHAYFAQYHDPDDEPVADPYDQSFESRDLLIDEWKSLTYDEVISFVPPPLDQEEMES

Protein | p38-MAPK phosphorylation (Western blot) | p38 or MK2 phosphorylation (Western blot)
T7-tagged human Mnk2a (protein) MVQKKPAELQGFHRSFKGQNPFELAFSLDQPDHGDSDFGLQCSARPDMPASQPIDIPDAKKRGKKKKRGRATDSFSGRFEDVYQLQEDVLGEGAHARVQTCINLITSQEYAVKIIEKQPGHIRSRVFREVEMLYQCQGHRNVLELIEFFEEEDRFYLVFEKMRGGSILSHIHKRRHFNELEASVVVQDVASALDFLHNKGIAHRDLKPENILCEHPNQVSPVKICDFDLGSGIKLNGDCSPISTPELLTPCGSAEYMAPEVVEAFSEEASIYDKRCDLWSLGVILYILLSGYPPFVGRCGSDCGWDRGEACPACQNMLFESIQEGKYEFPDKDWAHISCAAKDLISKLLVRDAKQRLSAAQVLQHPWVQGCAPENTLPTPMVLQRNSCAKDLTSFAAEAIAMNRQLAQHDEDLAEEEAAGQGQPVLVRATSRCLQLSPPSQSKLAQRRQRASLSSAPVVLVGDHA | only cells expressing Mnk2a showed increased p38-MAPK phosphorylation, indicating that p38-MAPK is activated | 
Mnk2a-kinase dead (Mnk2aKD) (protein) MVQKKPAELQGFHRSFKGQNPFELAFSLDQPDHGDSDFGLQCSARPDMPASQPIDIPDAKKRGKKKKRGRATDSFSGRFEDVYQLQEDVLGEGAHARVQTCINLITSQEYAVAIIEKQPGHIRSRVFREVEMLYQCQGHRNVLELIEFFEEEDRFYLVFEKMRGGSILSHIHKRRHFNELEASVVVQDVASALDFLHNKGIAHRDLKPENILCEHPNQVSPVKICDFDLGSGIKLNGDCSPISTPELLTPCGSAEYMAPEVVEAFSEEASIYDKRCDLWSLGVILYILLSGYPPFVGRCGSDCGWDRGEACPACQNMLFESIQEGKYEFPDKDWAHISCAAKDLISKLLVRDAKQRLSAAQVLQHPWVQGCAPENTLPTPMVLQRNSCAKDLTSFAAEAIAMNRQLAQHDEDLAEEEAAGQGQPVLVRATSRCLQLSPPSQSKLAQRRQRASLSSAPVVLVGDHA |  | it did not cause activation of p38, as measured by p38 or MK2 phosphorylation
